Data taken from publication PMC5636754, “Structural and biochemical characterization of DAXX-ATRX interaction” (Protein & Cell, 2017).

B1: ATRX_(1,265–1,285), α-helix frame only (αDID), wild type peptide [human] / DAXX helical bundle (DHB) domain of death domain-associated protein (DAXX), aa 55-144 [not stated] (parent complex)
chain 1: NDPENRIAKKMLLEEIKANLS
chain 2: GKKCYKLENEKLFEEFLELCKMQTADHPEVVPFLYNRQQRAHSLFLASAEFCNILSRVLSRARSRPAKLYVYINELCTVLKAHSAKKKLN

Variants of: B1
Test: ITC

Variant	Kd
chain 1 NDPENRIAKKMLLEQIKANLS [chain 1 E15Q]	3.2 µM
chain 1 NNPENRIAKKMLLEEIKANLS [chain 1 D2N]	7 µM
chain 1 NDPENRIAAKMLLEEIKANLS [chain 1 K9A]	2.3 µM
chain 1 NDPQNRIAKKMLLEEIKANLS [chain 1 E4Q]	5.6 µM
